We go through two molecules from patent US20200071416A1 (ASTUTE MEDICAL, published 2020).

Assay [1] concerns the target T1, TIMP-2 region 132PWDTLSTTQKK142 (human).
T1 construct: This exact peptide was not itself the assayed species
T1 peptide: PWDTLSTTQKK
Kind of assay: Pepscan ELISA on linear 15-mer TIMP-2 peptides. The procedure: (§1) Synthetic linear peptides were synthesized and screened as described by Slootstra et al. (Slootstra et al., 1996, Mol. Diversity 1, 87-96) and Timmerman et al. (Timmerman et al., 2007, J, Mol Recognit 20, 283-299). The binding of antibody to each peptide was tested in a PEPSCAN-based enzyme-linked immuno assay (ELISA). The covalently linked peptides were incubated with sample (for example 1 μg/mL antibody diluted in a PBS solution containing 5% horse serum (vol/vol) and 4% ovalbumin (weight/vol)) and 1% Tween 80 at 4° C. overnight. After washing, the peptides were incubated with Goat-anti-Rabbit HRP (Jackson Immunoresearch) for 1 hour at 25° C., and subsequently, after washing the peroxidase substrate 2,2′-azino-di-3-ethylbenzthiazoline sulfonate (ABTS) and […] 3% H₂O₂ were added. After 1 hour the color development was measured.
(ELISA stands for enzyme-linked immunosorbent assay.)

In assay [2] the target is T2, TIMP-2 region 145NHRYQMGCECKI156 (human).
T2 construct: This exact peptide was not itself the assayed species
T2 peptide: NHRYQMGCECKI
As to the kind of experiment: Pepscan ELISA on linear 15-mer TIMP-2 peptides. The procedure: as §1

B1: antibody 6E2.1 (antibody, V domains shown)
VH: QVQLQQSGPQLVRPGASVKISCKASGYSFTSYWMHWVKQRPGQGLEWIGVIDPSDSETRLNQKFKDKATLTVDKSSSTAYMQLNSPTSEDSAVYYCARRDYGSRYDAMDYWGQGTSVTVSS
VL: DIQMTQSSSYLSVSLGGRVTITCKASDHINNWLAWYQQKPGNAPRLLISGATSLETGVPSRFSGSGSGKDYTLSITSLQTEDVATYYCQQYWSTPFTFGSGTKLEIK
notes: Both are partial: a leader, the variable domain and only the start of the constant region
As to B1, the binding result in assay [1] is given as “binds”.

B2: antibody 40H2-40K3 (antibody, V domains shown)
VH: QSLEESGGDLVKPEGSLTLTCTASGFTISSNYYMCWVRQAPGKGLEWVACILGGSGTYTYYATWAKGRFTISKTSSTTVTLQMPSLTAADTATYFCARQAPADTYLYGGYGPFNLWGQGTLVTVSS
VL: DIVMTQTPSSVEAAVGGTVTIKCQASESISGWLAWYQQKPGQPPKLLIYRASTLESGVPSRFKGSGSGTEFTLTISDLECADAATYYCQCSYGINGNSEHGNPFGGGTEVVVKR
Turning to B2, the binding result in assay [2] is on record as “binds”.
